Data from patent US20250277023A1 (published 2025).
Numbering of substitutions follows the chain as printed.

B1: R1043 (bispecific antibody)
chain 1: QVQLESEGGLFKPTDTLTLTCTVSGSSLSSSYMSWVRQAPGKGLEWIGIIGSNGNTYYANWAKGRFTISKTSTTVELKITSPTTEDTATYFCARGGYRTSGMDPWGPGTLVTVSSGGGGSGGGGSGGGGSGGGGSGITCPPPMSVEHADIWVKSYSLYSRERYICNSGFKRKAGTSSLTECVLNKATNVAHWTTPSLKCIRDPALVHQRPAPPSTVTTAGVTPQPESLSPSGKEPAASSPSSNNTAATTAAIVPGSQLMPSKSPSTGTTEISSHESSHGTPSQTTAKNWELTASASHQPPGVYPQGHSDTTEPRGPTIKPCPPCKCPAPNLLGGPSVFIFPPKIKDVLMISLSPIVTCVVVDVSEDDPDVQISWFVNNVEVHTAQTQTHREDYNSTLRVVSALPIQHQDWMSGKEFKCKVNNKDLPAPIERTISKPKGSVRAPQVYVLPPPEEEMTKKQVTLWCMVTDFMPEDIYVEWTNNGKTELNYDNTEPVLDSDGSYFMYSDLRVEKKNWVERNSYSCSVVHEGLHNHHTTKSFSRTPGK
chain 2: not shown
heavy: EVQLLESGGGLVQPGGSLRLSCAASGFTFSSYIMMWVRQAPGKGLEWVSSIYPSGGITFYADTVKGRFTISRDNSKNTLYLQMNSLRAEDTAVYYCARIKLGTVTTVDYWGQGTLVTVSSAKTTAPSVYPLAPVCGDTTGSSVTLGCLVKGYFPEPVTLTWNSGSLSSGVHTFPAVLQSDLYTLSSSVTVTSSTWPSQSITCNVAHPASSTKVDKKIEPRGPTIKPCPPCKCPAPNLLGGPSVFIFPPKIKDVLMISLSPIVTCVVVDVSEDDPDVQISWFVNNVEVHTAQTQTHREDYNSTLRVVSALPIQHQDWMSGKEFKCKVNNKDLPAPIERTISKPKGSVRAPQVYVLPPPEEEMTKKQVTLTCRVTDFMPEDIYVEWTNNGKTELNYKNTEPVLKSDGSYFMASKLRVEKKNWVERNSYSCSVVHEGLHNHHTTKSFSRTPGK
light: DIVMTQTPASVEVAVGGTVTIKCQASQSISSYLNWYQQKPGQPPKLLIYDALKLASGVPSRFSGSGSGTEYTLTISGVESADAATYYCQQEHSVGNVDNVFGGGTEVVVKRTDAAPTVSIFPPSSEQLTSGGASVVCFLNNFYPKDINVKWKIDGSERQNGVLNSWTDQDSKDSTYSMSSTLTLTKDEYERHNSYTCEATHKTSTSPIVKSFNRNEC
B2: R0950: PD-L1_VH_IL15RA/PD-L1_VL_IL15/TIGIT-Fab (bispecific antibody)
chain 1: EVQLLESGGGLVQPGGSLRLSCAASGFTFSSYIMMWVRQAPGKGLEWVSSIYPSGGITFYADTVKGRFTISRDNSKNTLYLQMNSLRAEDTAVYYCARIKLGTVTTVDYWGQGTLVTVSSGGGGSGGGGSGGGGSGGGGSGITCPPPMSVEHADIWVKSYSLYSRERYICNSGFKRKAGTSSLTECVLNKATNVAHWTTPSLKCIRDPALVHQRPAPPSTVTTAGVTPQPESLSPSGKEPAASSPSSNNTAATTAAIVPGSQLMPSKSPSTGTTEISSHESSHGTPSQTTAKNWELTASASHQPPGVYPQGHSDTTEPRGPTIKPCPPCKCPAPNLLGGPSVFIFPPKIKDVLMISLSPIVTCVVVDVSEDDPDVQISWFVNNVEVHTAQTQTHREDYNSTLRVVSALPIQHQDWMSGKEFKCKVNNKDLPAPIERTISKPKGSVRAPQVYVLPPPEEEMTKKQVTLWCMVTDFMPEDIYVEWTNNGKTELNYDNTEPVLDSDGSYFMYSDLRVEKKNWVERNSYSCSVVHEGLHNHHTTKSFSRTPGK
chain 2: not shown
heavy: QVQLESEGGLFKPTDTLTLTCTVSGSSLSSSYMSWVRQAPGKGLEWIGIIGSNGNTYYANWAKGRFTISKTSTTVELKITSPTTEDTATYFCARGGYRTSGMDPWGPGTLVTVSSAKTTAPSVYPLAPVCGDTTGSSVTLGCLVKGYFPEPVTLTWNSGSLSSGVHTFPAVLQSDLYTLSSSVTVTSSTWPSQSITCNVAHPASSTKVDKKIEPRGPTIKPCPPCKCPAPNLLGGPSVFIFPPKIKDVLMISLSPIVTCVVVDVSEDDPDVQISWFVNNVEVHTAQTQTHREDYNSTLRVVSALPIQHQDWMSGKEFKCKVNNKDLPAPIERTISKPKGSVRAPQVYVLPPPEEEMTKKQVTLTCRVTDFMPEDIYVEWTNNGKTELNYKNTEPVLKSDGSYFMASKLRVEKKNWVERNSYSCSVVHEGLHNHHTTKSFSRTPGK
light: B1 light
B3: R1042: PD-L1_VH_IL15RA/TIGIT_VL_IL15/TIGIT_VH/PD-L1-VL (bispecific antibody)
chain 1: B2 chain 1
chain 2: not shown
heavy: B2 heavy
light: QSALTQPASVSGSPGQSITISCTGTSSDVGGYNYVSWYQQHPGKAPKLMIYDVSNRPSGVSNRFSGSKSGNTASLTISGLQAEDEADYYCSSYTSSSTRVFGTGTKVTVLRTDAAPTVSIFPPSSEQLTSGGASVVCFLNNFYPKDINVKWKIDGSERQNGVLNSWTDQDSKDSTYSMSSTLTLTKDEYERHNSYTCEATHKTSTSPIVKSFNRNEC
B4: R1042 (bispecific antibody)
chain 1: B2 chain 1
chain 2: not shown
heavy: B2 heavy
light: B3 light
B5: R1262: TIGIT VH-IL2Rα mutant-Fc/TIGIT VL-IL2 mutant/PD-L1_VH-hIgG1/PD-L1 VL-κ-Ig LC (bispecific antibody)
chain 1: QVQLVQSGAEVKKPGSSVKVSCKASGYSFTSYWMNWVRQAPGQGLEWIGMIRPSDSETRLNQMFKDRVTITVDKSTSTAYMELSSLRSEDTAVYYCAGIHDYGHGAYWGQGTLVTVSSGGGGSGGGGSGGGGSGGGGCGELCDDDPPEIPHATFKAMAYKEGTMLNCECKRGFRRIKSGSLYMLCTGNSSHSSWDNQCQCTSSATRNTTKQVTPQPEEQKERKTTEMQSPMQPVDQASLPGHCREPPPWENEATERIYHFVVGQMVYYQCVQGYRALHRGPAESVCKMTHGKTRWTQPQLICTGEPKSSDKTHTCPPCPAPELLGGPSVFLFPPKPKDTLMISRTPEVTCVVVDVSHEDPEVKFNWYVDGVEVHNAKTKPREEQYNSTYRVVSVLTVLHQDWLNGKEYKCKVSNKALPAPIEKTISKAKGQPREPQVYTLPPSREEMTKNQVSLTCRVKGFYPSDIAVEWESNGQPENNYKTTPPVLKSDGSFFLASKLTVDKSRWQQGNVFSCSVMHEALHNHYTQKSLSLSPGK
chain 2: not shown
heavy: EVQLQESGPGLVKPSETLSLTCAVYGDSITSGYWNWIRKPPGKGLEYMGYISYTGSTYQNPSLKSRITFSRDTSKNQYYLKLSSVTAADTATYYCARSRAWIRTYFDYWGQGTLVTVSSASTKGPSVFPLAPSSKSTSGGTAALGCLVKDYFPEPVTVSWNSGALTSGVHTFPAVLQSSGLYSLSSVVTVPSSSLGTQTYICNVNHKPSNTKVDKRVEPKSCDKTHTCPPCPAPELLGGPSVFLFPPKPKDTLMISRTPEVTCVVVDVSHEDPEVKFNWYVDGVEVHNAKTKPREEQYNSTYRVVSVLTVLHQDWLNGKEYKCKVSNKALPAPIEKTISKAKGQPREPQVYTLPPSREEMTKNQVSLWCLVKGFYPSDIAVEWESNGQPENNYDTTPPVLDSDGSFFLYSDLTVDKSRWQQGNVFSCSVMHEALHNHYTQKSLSLSPGK
light: EIVLTQSPDFQSVTPKEKVTITCSVSSSISSSNLHWYQQKPDQSPKLLIYGTSNLASGVPSRFSGSGSGTDFTLTINSLEAEDAATYYCQQWSSYPLTFGQGTKLEIKRTVAAPSVFIFPPSDEQLKSGTASVVCLLNNFYPREAKVQWKVDNALQSGNSQESVTEQDSKDSTYSLSSTLTLSKADYEKHKVYACEVTHQGLSSPVTKSFNRGEC
B6: R1115: TIGIT_VH_IL2RA/TIGIT_VL_IL2/PD-L1-Fab (bispecific antibody)
chain 1: B5 chain 1 with C138S
chain 2: not shown
heavy: B5 heavy
light: B5 light

How the values were obtained:
IL15R = test: FACS binding; Fig. 29
[1] = target: T1, PD-L1 (on CHO-PD-L1 cells) (UniProt Q9NZQ7 19-290); test: FACS binding; Fig. 23
[2] = target: T1, PD-L1 (on CHO-PD-L1 cells); test: FACS binding; Fig. 21
[3] = target: T2, TIGIT (on CHO-TIGIT cells) (UniProt Q495A1 22-244); test: FACS binding; Fig. 20
T2 chain: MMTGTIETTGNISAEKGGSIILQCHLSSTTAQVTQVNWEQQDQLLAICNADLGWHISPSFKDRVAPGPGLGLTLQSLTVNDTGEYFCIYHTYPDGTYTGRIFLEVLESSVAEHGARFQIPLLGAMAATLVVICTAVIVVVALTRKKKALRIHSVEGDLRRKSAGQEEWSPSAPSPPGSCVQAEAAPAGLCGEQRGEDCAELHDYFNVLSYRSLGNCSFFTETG

[4] = target: T1, PD-L1 (on CHO-PD-L1 cells); test: FACS binding; Fig. 26
[5] = target: T2, TIGIT (on CHO-TIGIT cells); test: FACS blocking of PVR binding to CHO-Tigit; Fig. 27
[6] = target: T1, PD-L1 (on CHO-PD-L1 cells); test: FACS binding; Fig. 22

T1 sequence (Q9NZQ7 19-290): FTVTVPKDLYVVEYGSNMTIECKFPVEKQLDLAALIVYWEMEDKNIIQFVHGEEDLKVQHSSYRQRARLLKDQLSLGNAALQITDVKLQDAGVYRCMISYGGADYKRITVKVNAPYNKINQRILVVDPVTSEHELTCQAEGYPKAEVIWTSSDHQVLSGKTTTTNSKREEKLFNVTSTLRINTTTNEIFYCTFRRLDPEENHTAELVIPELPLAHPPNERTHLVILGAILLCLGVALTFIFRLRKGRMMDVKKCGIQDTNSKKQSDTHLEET

Row | Binder | EC50 (IL15R) [nM] | EC50 [1] [nM] | EC50 [3] [nM] | EC50 [4] [nM] | EC50 [5] [nM] | further results
1 | B1 | 1.07 |  |  |  |  | 
2 | B2 |  | 0.903 |  |  |  | EC50 [2]: 0.571 nM
3 | B3 |  | 7.29 |  |  |  | 
4 | B4 | 0.862 |  |  |  |  | 
5 | B5 |  |  | 11.3 | 2.64 | 50.4 | 
6 | B6 |  |  | 15.7 | 3.11 | 336 | EC50 [6]: 3.72 nM
